{"source": "the DeepSol protein solubility set"}
{"assay": "soluble on expression in E. coli; label from the status in PepcDB or PDB records"}
{"sequence": "MHFYKYGVLINQLSDSFEWRVAFLDGSVSDHCCITVPSEKFNFPPTPGATVKAKFEHANSFLPSLVAQCGSFEWFRDVTVVNSKVVIFAIVHFSNECLERDPFKINGMDYSIIENENTDFQKIVLPTRVLQTSITSRSNLQNTDTPFIYRIGVCWEPISFENGVTVNWRYYADFPITPIFELYYRETTLPYIAESMVYGVLEGVVIAENDHGALFWTPKMGCAILPSTSLDTPMPSLGSVHVILVKRCIPENSFGFSCSYELLSSFRSTEWPNLKVITDQITRKVYIEANASCRSMMENQDFPSMNVPHIGKVFRGLQQYRDKLSAGHLYDFRMEFQKEEGSFVPTIVDLCLEEDEMVDCRVVYISNETSTYFAVLDPSSNSFDRFKQSIDYIAIPFRVLFCANGVHVKNEELLLNSYKVRVRVPRNRHDVVNAIHVEHVIQSPKDPAYFITNGSVWLRTTVKFQNASRYELLCPLLEQKIIDVNGVTAAMSLTQEFTVHAQFVLMERNVPVFVVRQLASTVREHPRTTNYPSRSLNLSYEVSGALARTNPNGQLSAADNNIVLINDSISLDHNLPDTGEYPTILNESSFERQLLFDNQSIADSASTSGDFILTESVYESSSAASTCTVIDRNDARFSALNDDSNILISESWLDSTNQHSETTMDTPEIITESFYESTHDQASSRASTVDRLASDVDKISIGRPDYSPPPRRRIFGYSTPGDRVRPRNSYGSSSSGSLNGRPKRRAPYGFRQIRNITPHNVLLRDIIYNNINNRKMFVEQNKNAILKCWNRLPLAQVTRTTKLSVTVIAVESIKFPPSFDETCIKGLVRFVALGVGVDINLRNMSIVVPIGGKFNNLPKSFQLGETYRVYHFSSKVDRICRLGGFSFGLKGGMRNEEPPDRNNWFSDPQTVNGRDGQSYLRCTVNAERPANAEIESDFFELWSTTALPGFIIVEKVPQLMKHLNEELLDPDVHSRFTYSCVIEPLAGGPVEASILKDLKYDEEFCIFWRLVVEFSDTVPLPRLIIKSKIYVPPPPVVPVYVTPFTVNDFGCWETHRINSILHQARIDRLRAAGHMRVKMLDGPDMKPEIEIRKVDVNTRREKMFTAFDALLEKLPQLHSEGILEYVLEDDLREKIEYLLPMTDDNHKFQFRARNDSLTIGLNYLTDMLTKGKVYKMLYEKQEYVPLLKVLSDCIGLNTTYIKKTDAVTMMLQFMYRNELHTYM", "soluble on expression in E. coli": "not soluble"}
{"sequence": "MHGESPIKRRESRKIWVGSVPVGGDAPIAVQSMTNSDTNDVAATVAQINRLEAAGVDIVRISVPDMDAAEAFGRIKQLVKVPLVADIHFDYRIALRVAELGVDCLRINPGNIGREDRVRAVVDAARDRGIPIRIGVNAGSLEKDLQKKYGEPTPEALVESALRHVEHLERLNFKDFKVSVKASDVFMAVAAYRLLAKQIVQPLHLGITEAGGLRSGTVKSAVGLGMLLAEGIGDTIRISLAADPVEEVKVGYDILKSLRLRSRGINFIACPSCSRQNFDVVKTMNELEGRLEDLLVPLDVAVIGCVVNGPGEAKEAHIGLTGGTPNLIYIDGKPAQKLTNDNLVDELERLIREKAAEKTAADASVIVRGLEHHHHHH", "soluble on expression in E. coli": "not soluble"}
{"sequence": "MHGTCLSGLYPEPFTHNSHDYPHFNIYISFGGPKYCITALNTYVIPLLHHILTTQFIHTYFNIPTKSPPKSPKHKNYLSFNFTK", "soluble on expression in E. coli": "soluble"}
{"sequence": "MHGTCLSGLYPVPFTHNSHDYPHFNIYISFGGPKYCITALNTYVTPLLHRILTTQFIYTYANITKKSPLKSPKHKNILFFNHNT", "soluble on expression in E. coli": "soluble"}
{"sequence": "MHHHHHHGKPIPNPLLGLDSTENLYFQGIDPFTKAYAFGFPKIGEKREFKKALEDFWKGKITEEQFEEEMNKLRMYMVENYRKNVDVIPSNELSYYDFVLDTAVMVGAVPERFGEYRGLSTYFDMARGGKALEMTKFFNTNYHYLVPEIETEEFYLLENKPLEDYLFFKSKGIETAPWVIGPFTFLYLSKRNGEWIRRPNQMEKLLESLVSVYKEVFEKLVENGCKEILVNEPAFVCDLEKAHWDLILNVYRELSEFPLTVFTYYDSVSDYEACVSLPVKRLHFDFVSNEENLKNLEKHGFPEDKKLVAGVINGRQPWKVDLRKVASLVEKLGASAISNSCPLFHLPVTLELENNLPGGLKEKLAFAKEKLEELKMLKDFLEGKTFDLPNVSFEDFAVDLQAVERVRNLPEDSFRREKEYTERDRIQRERLNLPLFPTTTIGSFPQTPEVRKMRSKYRKGEISKEEYEAFIKEQIKKAIELQEEIGLDVLVHGEFERTDMVEFFAEKLNGIATTQNGWVLSYGSRCYRPPIIYGTVTRPEPMTLKEITYAQSLTEKPVKGMLTGPVTIMSWSYYREDIPEREIAYQIALAINEEVKDLEEAGIKIVQIDEPAFREKAPIKKSKWPEYFEWAINAFNLAANARPETQIHAHMCYSDFNEIIEYIHQLEFDVISIEASRSKGEIISAFENFKGWIKQIGVGVWDIHSPAVPSINEMREIVERVLRVLPKELIWINPDCGLKTRNWDEVIPSLRNMVALAKEMREKFES", "soluble on expression in E. coli": "soluble"}
{"sequence": "MHHHHHHMKEVVSSVYKEILVKLGLTEDRIETLEMKGGIIEDEFDGIRYVRFKDSAGKLRRGTVVIDEEYVIPGFPHIKRIINLRSGIRRIFKRGEFYVEEKVDGYNVRVVMYKGKMLGITRGGFICPFTTERIPDFVPQEFFKDNPNLILVGEMAGPESPYLVEGPPYVKEDIQFFLFDVQEIKTGRSLPVEERLKIAEEYGINHVEVFGKYTKDDVDELYQLIERLSKEGREGIIMKSPDMKKIVKYVTPYANINDIKIGARVFYELPPGYFTSRISRLAFYLAEKRIKGEEFERVAKELGSALLQPFVESIFDVEQEEDIHELFKVRVKRIETAYKMVTHFEKLGLKIEIVDIEEIKDGWRITFKRLYPDATNEIRELIGGKAFVD", "soluble on expression in E. coli": "soluble"}
{"sequence": "MHHHHHHSSGRENLYFQGNFDYMFKLLIIGNSSVGKTSFLFRYADDTFTPAFVSTVGIDFKVKTVYRHEKRVKLQIWDTAGQERYRTITTAYYRGAMGFILMYDITNEESFNAVQDWATQIKTYSWDNAQVILVGNKCDMEEERVVPTEKGQLLAEQLGFDFFEASAKENISVRQAFERLVDAICDKMSDS", "soluble on expression in E. coli": "soluble"}
{"sequence": "MHHHHHHSSGRENLYFQGTFAERYNIVCMLGKGSFGEVLKCKDRITQQEYAVKVINKASAKNKDTSTILREVELLKKLDHPNIMKLFEILEDSSSFYIVGELYTGGELFDEIIKRKRFSEHDAARIIKQVFSGITYMHKHNIVHRDLKPENILLESKEKDCDIKIIDFGLSTCFQQNTKMKDRIGTAYYIAPEVLRGTYDEKCDVWSAGVILYILLSGTPPFYGKNEYDILKRVETGKYAFDLPQWRTISDDAKDLIRKMLTFHPSLRITATQCLEHPWIQKYSSETPTISDLPSLESAMTNIRQFQAEKKLAQAALLYMASKLTTLDETKQLTEIFRKLDTNNDGMLDRDELVRGYHEFMRLKGVDSNSLIQNEGSTIEDQIDSLMPLLDMDGSGSIEYSEFIASAIDRTILLSRERMERAFKMFDKDGSGKISTKELFKLFSQADSSIQMEELESIIEQVDNNKDGEVDFNEFVEMLQNFVRNE", "soluble on expression in E. coli": "soluble"}
{"sequence": "MHHHHHHSSGVDLGTENLYFQSMAAGGDHGSPDSYRSPLASRYASPEMCFVFSDRYKFRTWRQLWLWLAEAEQTLGLPITDEQIREMKSNLENIDFKMAAEEEKRLRHDVMAHVHTFGHCCPKAAGIIHLGATSCYVGDNTDLIILRNALDLLLPKLARVISRLADFAKERASLPTLGFTHFQPAQLTTVGKRCCLWIQDLCMDLQNLKRVRDDLRFRGVKGTTGTQASFLQLFEGDDHKVEQLDKMVTEKAGFKRAFIITGQTYTRKVDIEVLSVLASLGASVHKICTDIRLLANLKEMEEPFEKQQIGSSAMPYKRNPMRSERCCSLARHLMTLVMDPLQTASVQWFERTLDDSANRRICLAEAFLTADTILNTLQNISEGLVVYPKVIERRIRQELPFMATENIIMAMVKAGGSRQDCHEKIRVLSQQAASVVKQEGGDNDLIERIQVDAYFSPIHSQLDHLLDPSSFTGRASQQVQRFLEEEVYPLLKPYESVMKVKAE", "soluble on expression in E. coli": "soluble"}
{"sequence": "MHHHHHHSSGVDLGTENLYFQSMASSHLNKGIKQVYMSLPQGEKVQAMYIWIDGTGEGLRCKTRTLDSEPKCVEELPEWNFDGSSTLQSEGSNSDMYLVPAAMFRDPFRKDPNKLVLCEVFKYNRRPAETNLRHTCKRIMDMVSNQHPWFGMEQEYTLMGTDGHPFGWPSNGFPGPQGPYYCGVGADRAYGRDIVEAHYRACLYAGVKIAGTNAEVMPAQWEFQIGPCEGISMGDHLWVARFILHRVCEDFGVIATFDPKPIPGNWNGAGCHTNFSTKAMREENGLKYIEEAIEKLSKRHQYHIRAYDPKGGLDNARRLTGFHETSNINDFSAGVANRSASIRIPRTVGQEKKGYFEDRRPSANCDPFSVTEALIRTCLLNETG", "soluble on expression in E. coli": "soluble"}
{"sequence": "MHHHHHHSSGVDLGTENLYFQSMMASQNSFRIEYDTFGELKVPNDKYYGAQTVRSTMNFKIGGVTERMPTPVIKAFGILKRAAAEVNQDYGLDPKIANAIMKAADEVAEGKLNDHFPLVVWQTGSGTQTNMNVNEVISNRAIEMLGGELGSKIPVHPNDHVNKSQSSNDTFPTAMHIAAAIEVHEVLLPGLQKLHDALDAKSKEFAQIIKIGRTHTQDAVPLTLGQEFSGYVQQVKYAMTRIKAAMPRIYELAAGGTAVGTGLNTRIGFAEKVAAKVAALTGLPFVTAPNKFEALAAHDALVELSGAMNTTACSLMKIANDIRFLGSGPRSGLGELILPENEPGSSIMPGKVNPTQCEAMTMVAAQVMGNHVAVTVGGSNGHFELNVFKPMMIKNVLHSARLLGDASVSFTENCVVGIQANTERINKLMNESLMLVTALNPHIGYDKAAKIAKTAHKNGSTLKETAIELGYLTAEQFDEWVKPKDMLGPK", "soluble on expression in E. coli": "soluble"}
{"sequence": "MHHHHHHSSGVDLGTENLYFQSMVKPAGPTVEQQGEMARSGGRMLATLEPEQRAEIIHHLADLLTDQRDEILLANKKDLEEAEGRLAAPLLKRLSLSTSKLNSLAIGLRQIAASSQDSVGRVLRRTRIAKNLELEQVTVPIGVLLVIFESRPDCLPQVAALAIASGNGLLLKGGKEAAHSNRILHLLTQEALSIHGVKEAVQLVNTREEVEDLCRLDKMIDLIIPRGSSQLVRDIQKAAKGIPVMGHSEGICHMYVDSEASVDKVTRLVRDSKCEYPAACNALETLLIHRDLLRTPLFDQIIDMLRVEQVKIHAGPKFASYLTFSPSEVKSLRTEYGDLELCIEVVDNVQDAIDHIHKYGSSHTDVIVTEDENTAEFFLQHVDSACVFWNASTRFSDGYRFGLGAEVGISTSRIHARGPVGLEGLLTTKWLLRGKDHVVSDFSEHGSLKYLHENLPIPQRNTN", "soluble on expression in E. coli": "soluble"}
{"sequence": "MHHHHHHSSGVDLGTENLYFQSNAMELKDYYAILGVQPTDDLKTIKTAYRRLARKYHPDVSKENDAEAKFKDLAEAWEVLKDEQRRAEYDQLWQHRNDPGFGRQRQTHEQSYSQQDFDDIFSSMFGQQAHQRRRQHAARGHDLEIEVAVFLEETLAEQTRTISYNLPVYNVFGMIESETPKTLNVKIPAGVVDGQRIRLKGQGTPGENGGPNGDLWLVIHIAPHPLFDIVGHNLEIVLPLAPWEAALGAKVTVPTLKESILLTVPPGSQAGQRLRIKGKGLVSKTHTGDLFAVIKIVMPTKPDEKARELWQQLAAAEASFDPRKTWGKA", "soluble on expression in E. coli": "soluble"}
{"sequence": "MHHVYVIECSDGTYYTGYTTDVQRRVAEHNAGDGAKYTRGRTPVTLRHTESFDSKSEAMRREYRIKQLSRAQKEALFLEHHHHHH", "soluble on expression in E. coli": "soluble"}
{"sequence": "MHKLLISLMMLLSFQAFSQVQEYTLNNGLKVLVKEDHRAPVVVSMIWYNVGSADEPVGITGVSHAIEHMMFKGTSKYPVGVFSKTIAALGGQENAFTNNDYTAYYEKLDAGHLATSFELEADRMNNLLLNSEEFAKEIKVIQEERRLRTDNNPQALAFERFLATAHLTAPYNHPVIGWMNDLKQMKVEDLKKWYESYYAPNNATLVVVGDVNPEKVHALAEHYFGSIAKRPIASRKPQQEPSALGKKMVYINAPAKLPLLLIGYTVPSVKTAKNNWEPYALEIIAGILDAGESARFAKHLVRGNQVATGAEAYYNLYSRYQSQFIVYGAPSQDHQIKDLEKALITELEALKKAPVSNQELQRVKNQIIAQKTFEKDSIFGQAMELGLLETIGLGWKNTETYTKAINEITPEQIQQVAQRYFQENNMTVAELKPIRQEEVRP", "soluble on expression in E. coli": "not soluble"}
